Experimental findings from patent publication US20230212319A1, “NOVEL ANTIGEN BINDING DOMAINS AND SYNTHETIC ANTIGEN RECEPTORS INCORPORATING THE SAME” (University of Southern California, priority 2020, published 2023) are described below.

One experiment relates to DAUDI (CD20+) cells. In kind it is cell-based.
The next experiment concerns RS411 cells. In kind it is cell-based.
The next experiment deals with RAJI cells. The experiment can be described thus: JNG (Jurkat NFAT-GFP) cells expressing SAR: GFP induction on co-culture with RAJI.
In another experiment the test system is PC3 cells. The experiment can be described thus: JNG NFAT-GFP induction on co-culture with PC3.
The next experiment relates to SKOV3 cells. It is filed as cell-based.
For a further experiment, the system named is L363 cells. In words: JNG assay, co-culture with L363 cells. It is filed as cell-based. The conditions noted are these: co-culture with L363. In a few lines: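 Jurkat NFAT-GFP (JNG) cells stably transduced with SARs by lentivirus, with drug selection where the construct carried a resistance gene, then co-cultured with target cells at E:T ~1:2 for ~4–18 h. % GFP-positive cells measured by FACS against parental JNG; +/- to 5+ correspond to ~5–50% GFP-positive.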

Experiment [1] can be described thus: JNG NFAT-GFP background GFP induction (tonic signaling). The following applies: JNG cells expressing construct, without target.

Changes are numbered by the printed parent chain.

B1: 4089 (protein)
chain: MALPVTALLLPLALLLHAARPDIQMTQSPSSLSASVGDRVTITCKASDHINNWLAWYQQKPGQAPKLLIYGATTLETGVPSRFSGSGSGTDYTLTISSLQPEDFATYYCQQSWNTPWTFGQGTKLEIKRLEDLKNVFPPEVAVFEPSKAEIAHTQKATLVCLATGFYPDHVELSWWVNGKEVHSGVCTDPQPLKEQPALNDSRYCLSSRLRVSATFWQNPRNHFRCQVQFYGLSENDEWTQDRAKPVTQIVSAEAWGRADCGITSASYHQGVLSATILYEILLGKATLYAVLVSALVLMAMVKRKDSRGRAKRSGSGATNFSLLKQAGDVEENPGPTSMDWIWRILFLVGAATGAHSGPQVQLQESGGGLAQAGGSLRLSCAASGRTFSMGWFRQAPGKEREFVAAITYSGGSPYYASSVRGRFTISRDNAKNTVYLQMNSLKPEDTAVYYCAANPTYGSDWNAENWGQGTQVTVSSGSGGGGSGGGGSGGGGSFEQVQLQQPGAELVKPGASVKMSCKASGYAFSSYWINWMKQKPGQGLEWIGQIYPGDGDTNYNGKFKGRATLTADTSSSTAYMQLSSLTSEDSAVYFCARSITTVVGCAMDYWGQGTSVTVSSTRIQNPDPAVYQLRDSKSSDKSVCLFTDFDSQTNVSQSKDSDVYITDKCVLDMRSMDFKSNSAVAWSNKSDFACANAFNNSIIPEDTFFPSSDVPCDVKLVEKSFETDTNLNFQNLSVIGFRILLLKVAGFNLLMTLRLWSSRAKRSGSGVKQTLNFDLLKLAGDVESNPGPSRGHMTEYKPTVRLATRDDVPRAVRTLAAAFADYPATRHTVDPDRHIERVTELQELFLTRVGLDIGKVWVADDGAAVAVWTTPESVEAGAVFAEIGPRMAELSGSRLAAQQQMEGLLAPHRPKEPAWFLATVGVSPDHQGKGLGSAVVLPGVEAAERAGVPAFLETSAPRNLPFYERLGFTVTADVEVPEGPRTWCMTRKPGA
modifications: Synthetic Polynucloetide
With B1, the “GFP induction (JNG-GFP induction assay), DAUDI” value in the experiment with DAUDI (CD20+) cells is “highly positive”. Moreover, the “GFP induction (JNG-GFP induction assay), RS;411” value in the experiment on RS411 cells was “highly positive”. Besides, the “GFP induction (JNG-GFP induction assay), RAJI WT” value with RAJI cells is given as “positive”.

B2: 22691 (protein)
chain: MALPVTALLLPLALLLHAARPDIQMTQSPSSLSASVGDRVTITCRASQDISSYLNWYQQKPGKAPKLLIYYTSRLHSGVPSRFSGSGSGTDFTLTISSLQPEDFATYYCQQGNTLPYTFGQGTKVEIKRLEDLKNVFPPEVAVFEPSEAEISHTQKATLVCLATGFYPDHVELSWWVNGKEVHSGVCTDPQPLKEQPALNDSRYCLSSRLRVSATFWQNPRNHFRCQVQFYGLSENDEWTQDRAKPVTQIVSAEAWGRADCGFTSESYQQGVLSATILYEILLGKATLYAVLVSALVLMAMVKRKDSRGRAKRSGSGATNFSLLKQAGDVEENPGPTSMDWIWRILFLVGAATGAHSFEVQLVESGGGLVQPGGSLRLSCAASGFTFSDYFMSWVRQAPGKGLEWVATISNGGTYTYYPDSVKGRFTISRDNSKNTLYLQMNSLRAEDTAVYYCARFDGYIFDYWGQGTLVTVSSTRIQNPDPAVYQLRDSKSSDKSVCLFTDFDSQTNVSQSKDSDVYITDKCVLDMRSMDFKSNSAVAWSNKSDFACANAFNNSIIPEDTFFPSPESSCDVKLVEKSFETDTNLNFQNLSVIGFRILLLKVAGFNLLMTLRLWSSRAKRSGSGVKQTLNFDLLKLAGDVESNPGPSRGHMTEYKPTVRLATRDDVPRAVRTLAAAFADYPATRHTVDPDRHIERVTELQELFLTRVGLDIGKVWVADDGAAVAVWTTPESVEAGAVFAEIGPRMAELSGSRLAAQQQMEGLLAPHRPKEPAWFLATVGVSPDHQGKGLGSAVVLPGVEAAERAGVPAFLETSAPRNLPFYERLGFTVTADVEVPEGPRTWCMTRKPGA
In the case of B2, in the experiment with PC3 cells, the “NFAT-GFP ASSAY: PC-3” value is reported as “significant GFP induction”.

B3: 22687 (protein)
chain: B2 chain with S52N, Y117W, F385Y
With B3, in the experiment on SKOV3 cells, the “NFAT-GFP ASSAY: SKOV-3” value was “weaker but sufficient GFP induction”. Besides, the “NFAT-GFP ASSAY: PC-3” value in the experiment on PC3 cells is listed as “none to negligible GFP induction”.

B4: 22694 (protein)
chain: B2 chain with S52N, Y117W
Take B4: the “NFAT-GFP ASSAY: SKOV-3” value in the experiment with SKOV3 cells was “lowest GFP induction”.

B5: 22692 (protein)
chain: B2 chain with S52N, Y117W
Regarding B5, the “NFAT-GFP ASSAY: SKOV-3” value in the experiment with SKOV3 cells is recorded as “weaker but sufficient GFP induction”. The “NFAT-GFP ASSAY: PC-3” value with PC3 cells was “none to negligible GFP induction”.

B6: 4088 (protein)
chain: MALPVTALLLPLALLLHAARPDIQMTQSPSSLSASVGDRVTITCKASDHINNWLAWYQQKPGQAPKLLIYGATTLETGVPSRFSGSGSGTDYTLTISSLQPEDFATYYCQQSWNTPWTFGQGTKLEIKRLEIQNPDPAVYQLRDSKSSDKSVCLFTDFDSQTNVSQSKDSDVYITDKCVLDMRSMDFKSNSAVAWSNKSDFACANAFNNSIIPEDTFFPSSDVPCDVKLVEKSFETDTNLNFQNLSVIGFRILLLKVAGFNLLMTLRLWSSRAKRSGSGVKQTLNFDLLKLAGDVESNPGPTSMDWIWRILFLVGAATGAHSGPQVQLQESGGGLAQAGGSLRLSCAASGRTFSMGWFRQAPGKEREFVAAITYSGGSPYYASSVRGRFTISRDNAKNTVYLQMNSLKPEDTAVYYCAANPTYGSDWNAENWGQGTQVTVSSGSGGGGSGGGGSGGGGSFEQVQLQQPGAELVKPGASVKMSCKASGYAFSSYWINWMKQKPGQGLEWIGQIYPGDGDTNYNGKFKGRATLTADTSSSTAYMQLSSLTSEDSAVYFCARSITTVVGCAMDYWGQGTSVTVSSTREDLKNVFPPEVAVFEPSKAEIAHTQKATLVCLATGFYPDHVELSWWVNGKEVHSGVCTDPQPLKEQPALNDSRYCLSSRLRVSATFWQNPRNHFRCQVQFYGLSENDEWTQDRAKPVTQIVSAEAWGRADCGITSASYHQGVLSATILYEILLGKATLYAVLVSALVLMAMVKRKDSRGRAKRSGSGATNFSLLKQAGDVEENPGPSRGHMTEYKPTVRLATRDDVPRAVRTLAAAFADYPATRHTVDPDRHIERVTELQELFLTRVGLDIGKVWVADDGAAVAVWTTPESVEAGAVFAEIGPRMAELSGSRLAAQQQMEGLLAPHRPKEPAWFLATVGVSPDHQGKGLGSAVVLPGVEAAERAGVPAFLETSAPRNLPFYERLGFTVTADVEVPEGPRTWCMTRKPGA
modifications: Synthetic Polynucloetide
On to B6, for which the “GFP induction (JNG-GFP induction assay), DAUDI” value with DAUDI (CD20+) cells is listed as “highly positive”. The “GFP induction (JNG-GFP induction assay), RS;411” value in the experiment on RS411 cells is recorded as “highly positive”. In the experiment with RAJI cells, the “GFP induction (JNG-GFP induction assay), RAJI WT” value is on record as “positive”.

B7: 21997 (protein)
chain: MALPVTALLLPLALLLHAARPQLQLQESGPGLVKPSETLALTCNVSGGSISSSSYYWGWIRQPPGKRLEWIGSIYYSGSTYFNPSLKSRVTISVDTSKNQFSLKLSSVTAADTAVYYCAGGDYYGPVGQWPSDYRGQGTLVTVSSLEDLKNVFPPEVAVFEPSEAEISHTQKATLVCLATGFYPDHVELSWWVNGKEVHSGVCTDPQPLKEQPALNDSRYCLSSRLRVSATFWQNPRNHFRCQVQFYGLSENDEWTQDRAKPVTQIVSAEAWGRADCGFTSESYQQGVLSATILYEILLGKATLYAVLVSALVLMAMVKRKDSRGRAKRSGSGATNFSLLKQAGDVEENPGPTSMDWIWRILFLVGAATGAHSFEQVQLVESGGGLVQPGGSLRLSCAASGFTFTNHAMSWVRQAPGKGLELVSSISGNGRTTYYADSVKGRFTISRDISKNTLDLQMNSLRAEDTAVYYCAKDGGETLVDSRGQGTLVTVSSTRIQNPDPAVYQLRDSKSSDKSVCLFTDFDSQTNVSQSKDSDVYITDKCVLDMRSMDFKSNSAVAWSNKSDFACANAFNNSIIPEDTFFPSPESSCDVKLVEKSFETDTNLNFQNLSVIGFRILLLKVAGFNLLMTLRLWSSRAKRSGSGVKQTLNFDLLKLAGDVESNPGPSRGHMTEYKPTVRLATRDDVPRAVRTLAAAFADYPATRHTVDPDRHIERVTELQELFLTRVGLDIGKVWVADDGAAVAVWTTPESVEAGAVFAEIGPRMAELSGSRLAAQQQMEGLLAPHRPKEPAWFLATVGVSPDHQGKGLGSAVVLPGVEAAERAGVPAFLETSAPRNLPFYERLGFTVTADVEVPEGPRTWCMTRKPGA
As to B7, the “NFAT-GFP ASSAY: L363” value in the experiment on L363 cells is “+ (refer to approximately 5%, 10%, 20%, 30%, 40% and 50% GFP positive cells)”. The “NFAT-GFP ASSAY: Self Activation (SA)” value in experiment [1] is reported as “Self Activation”.
